Laboratory results published in patent US20240165282A1, “CONFORMATIONAL CONSTRAINED SOMATOSTATIN RECEPTOR 3 PEPTIDE LIGANDS AND THEIR CONJUGATES AND USES THEREOF” (STARGET PHARMA LTD., priority 2021, published 2024).
*1 amine or outer side, *2 acyl side, *3 side chain or, on linkers, in order; H or OH if unused. Bridges are numbered along the chain shown (N, C = ends). [ ]: non-standard residue; d: D form. The star is where a group is joined. DOTA = O=C(O)CN1CCN(CC(=O)O)CCN(CC(=O)*)CCN(CC(=O)O)CC1; N(2-mercaptoethyl)Gly = O=C(CN(CCS[*:3])[*:1])[*:2]; Glutaryl = O=C(CCCC(=O)[*:2])[*:1]; Orn = NCCC[C@H](N)C(=O)O; Aoc = NCCCCCCCC(=O)O; CPT = camptothecin

B1: SEQ ID NO: 22 (peptide)
peptide: {DOTA}-[dF]EE[Orn]CF[dW]KTF[N(2-mercaptoethyl)Gly]-NH2
modifications: disulfide 5-11
SMILES: C[C@@H](O)[C@@H]1NC(=O)[C@H](CCCCN)NC(=O)[C@@H](Cc2c[nH]c3ccccc23)NC(=O)[C@H](Cc2ccccc2)NC(=O)[C@@H](NC(=O)[C@H](CCCN)NC(=O)[C@H](CCC(=O)O)NC(=O)[C@H](CCC(=O)O)NC(=O)[C@@H](Cc2ccccc2)NC(=O)CN2CCN(CC(=O)O)CCN(CC(=O)O)CCN(CC(=O)O)CC2)CSSCCN(CC(N)=O)C(=O)[C@H](Cc2ccccc2)NC1=O
B2: SEQ ID NO: 23 (peptide)
peptide: {DOTA}-[dF]E[Orn]CF[dW]KTF[N(2-mercaptoethyl)Gly]-NH2
modifications: disulfide 4-10
SMILES: C[C@@H](O)[C@@H]1NC(=O)[C@H](CCCCN)NC(=O)[C@@H](Cc2c[nH]c3ccccc23)NC(=O)[C@H](Cc2ccccc2)NC(=O)[C@@H](NC(=O)[C@H](CCCN)NC(=O)[C@H](CCC(=O)O)NC(=O)[C@@H](Cc2ccccc2)NC(=O)CN2CCN(CC(=O)O)CCN(CC(=O)O)CCN(CC(=O)O)CC2)CSSCCN(CC(N)=O)C(=O)[C@H](Cc2ccccc2)NC1=O
B3: SEQ ID NO: 25 (peptide)
peptide: {DOTA}-[dF]RCY[dW]KTF[N(2-mercaptoethyl)Gly]-NH2
modifications: disulfide 3-9
SMILES: C[C@@H](O)[C@@H]1NC(=O)[C@H](CCCCN)NC(=O)[C@@H](Cc2c[nH]c3ccccc23)NC(=O)[C@H](Cc2ccc(O)cc2)NC(=O)[C@@H](NC(=O)[C@H](CCCNC(=N)N)NC(=O)[C@@H](Cc2ccccc2)NC(=O)CN2CCN(CC(=O)O)CCN(CC(=O)O)CCN(CC(=O)O)CC2)CSSCCN(CC(N)=O)C(=O)[C@H](Cc2ccccc2)NC1=O
B4: SEQ ID NO: 26 (peptide)
peptide: H-XRCF[dW]KTY[N(2-mercaptoethyl)Gly]-NH2
modifications: disulfide 3-9; not fully specified (residue 1); printed as H-Phe1-Arg2-Cys3-Phe4-D-Trp5-Lys6-Thr7-Tyr8-NTEG9-NH2 (cyclo 3-9)

These binders were tested against human cloned somatostatin receptor 5 (human) (UniProt P35346) (assay: 125I-Tyr11-SRIF-14 displacement).
Sequence of human cloned somatostatin receptor 5 (human) (P35346 whole entry): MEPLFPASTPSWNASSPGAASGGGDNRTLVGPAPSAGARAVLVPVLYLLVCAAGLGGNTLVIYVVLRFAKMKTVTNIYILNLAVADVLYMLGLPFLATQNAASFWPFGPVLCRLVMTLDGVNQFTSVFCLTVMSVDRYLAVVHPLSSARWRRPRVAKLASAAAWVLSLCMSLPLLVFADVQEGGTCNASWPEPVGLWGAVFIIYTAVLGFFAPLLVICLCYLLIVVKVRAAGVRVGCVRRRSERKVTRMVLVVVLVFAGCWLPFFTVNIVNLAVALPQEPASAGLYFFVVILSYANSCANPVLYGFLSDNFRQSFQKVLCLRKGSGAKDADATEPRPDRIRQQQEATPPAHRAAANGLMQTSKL

In order of falling % displacement at 1 nM:
1. B3  6%
2. B1  0%
3. B2  0%
4. B4  0%
5. {CPT-Aoc}-[dF]RCF[dW]KTF[N(2-mercaptoethyl)Gly]-NH2 (disulfide 3-9) [SEQ ID NO: 27]  0%
6. {Niraparib-Glutaryl}-[dF]RCF[dW]KTF[N(2-mercaptoethyl)Gly]-NH2 (disulfide 3-9) [SEQ ID NO: 28]  0%

In order of falling % displacement at 10 nM:
1. B3  16%
2. B4  1%
3. B1  0%
4. B2  0%
5. {CPT-Aoc}-[dF]RCF[dW]KTF[N(2-mercaptoethyl)Gly]-NH2 (disulfide 3-9) [SEQ ID NO: 27]  0%
6. {Niraparib-Glutaryl}-[dF]RCF[dW]KTF[N(2-mercaptoethyl)Gly]-NH2 (disulfide 3-9) [SEQ ID NO: 28]  0%

Each binder was assayed against human cloned somatostatin receptor 3 (human) (UniProt P32745) (assay: 125I-Tyr11-SRIF-14 displacement).
Sequence of human cloned somatostatin receptor 3 (human) (P32745 whole entry): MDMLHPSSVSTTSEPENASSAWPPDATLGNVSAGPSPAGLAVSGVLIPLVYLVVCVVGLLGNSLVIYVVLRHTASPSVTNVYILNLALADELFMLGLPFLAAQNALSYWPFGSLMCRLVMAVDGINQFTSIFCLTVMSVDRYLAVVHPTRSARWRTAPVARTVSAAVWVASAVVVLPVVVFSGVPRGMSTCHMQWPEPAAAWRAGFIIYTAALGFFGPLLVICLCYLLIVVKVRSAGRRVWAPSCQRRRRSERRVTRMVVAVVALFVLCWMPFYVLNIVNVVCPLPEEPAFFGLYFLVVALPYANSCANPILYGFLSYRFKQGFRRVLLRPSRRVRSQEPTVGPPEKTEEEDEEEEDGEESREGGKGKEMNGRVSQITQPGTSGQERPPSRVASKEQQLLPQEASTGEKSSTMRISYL

In order of rising % displacement at 1 nM:
1. B1  0%
2. {CPT-Aoc}-[dF]RCF[dW]KTF[N(2-mercaptoethyl)Gly]-NH2 (disulfide 3-9) [SEQ ID NO: 27]  12%
3. B2  19%
4. {Niraparib-Glutaryl}-[dF]RCF[dW]KTF[N(2-mercaptoethyl)Gly]-NH2 (disulfide 3-9) [SEQ ID NO: 28]  28%
5. B4  53%
6. B3  65%

In order of falling % displacement at 10 nM:
1. B3  94%
2. B4  86%
3. {Niraparib-Glutaryl}-[dF]RCF[dW]KTF[N(2-mercaptoethyl)Gly]-NH2 (disulfide 3-9) [SEQ ID NO: 28]  79%
4. B2  56%
5. {CPT-Aoc}-[dF]RCF[dW]KTF[N(2-mercaptoethyl)Gly]-NH2 (disulfide 3-9) [SEQ ID NO: 27]  51%
6. B1  49%

What follows are binders tested against human cloned somatostatin receptor 4 (human) (UniProt P31391) (assay: 125I-Tyr11-SRIF-14 displacement).
Sequence of human cloned somatostatin receptor 4 (human) (P31391 whole entry): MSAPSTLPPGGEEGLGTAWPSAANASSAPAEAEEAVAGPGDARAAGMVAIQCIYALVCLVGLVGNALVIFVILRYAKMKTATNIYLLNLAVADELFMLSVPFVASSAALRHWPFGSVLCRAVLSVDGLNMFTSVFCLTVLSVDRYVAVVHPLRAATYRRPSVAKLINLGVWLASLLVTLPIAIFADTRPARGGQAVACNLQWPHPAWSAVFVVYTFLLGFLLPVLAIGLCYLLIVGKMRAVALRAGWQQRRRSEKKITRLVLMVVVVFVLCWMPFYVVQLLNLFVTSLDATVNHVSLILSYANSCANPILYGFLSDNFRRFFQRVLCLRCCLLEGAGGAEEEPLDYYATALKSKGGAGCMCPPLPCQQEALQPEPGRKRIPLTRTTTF

In order of rising % displacement at 1 nM:
1. B1  0%
2. B2  0%
3. B4  0%
4. {CPT-Aoc}-[dF]RCF[dW]KTF[N(2-mercaptoethyl)Gly]-NH2 (disulfide 3-9) [SEQ ID NO: 27]  0%
5. {Niraparib-Glutaryl}-[dF]RCF[dW]KTF[N(2-mercaptoethyl)Gly]-NH2 (disulfide 3-9) [SEQ ID NO: 28]  0%
6. B3  5%

In order of rising % displacement at 10 nM:
1. B2  0%
2. B4  0%
3. {CPT-Aoc}-[dF]RCF[dW]KTF[N(2-mercaptoethyl)Gly]-NH2 (disulfide 3-9) [SEQ ID NO: 27]  0%
4. {Niraparib-Glutaryl}-[dF]RCF[dW]KTF[N(2-mercaptoethyl)Gly]-NH2 (disulfide 3-9) [SEQ ID NO: 28]  0%
5. B1  3%
6. B3  8%

What follows are binders tested against human cloned somatostatin receptor 2 (human) (UniProt P30874) (assay: 125I-Tyr11-SRIF-14 displacement).
Sequence of human cloned somatostatin receptor 2 (human) (P30874 whole entry): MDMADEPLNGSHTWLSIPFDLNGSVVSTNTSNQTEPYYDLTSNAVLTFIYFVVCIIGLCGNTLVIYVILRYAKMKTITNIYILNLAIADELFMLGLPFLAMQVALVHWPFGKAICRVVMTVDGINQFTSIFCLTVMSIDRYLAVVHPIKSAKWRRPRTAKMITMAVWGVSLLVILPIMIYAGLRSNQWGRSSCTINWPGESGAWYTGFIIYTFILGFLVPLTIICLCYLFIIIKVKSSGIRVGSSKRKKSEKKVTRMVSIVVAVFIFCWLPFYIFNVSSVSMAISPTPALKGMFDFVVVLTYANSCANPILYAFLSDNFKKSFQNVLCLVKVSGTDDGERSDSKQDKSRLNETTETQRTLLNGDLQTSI

In order of falling % displacement at 1 nM:
1. B1  0%
2. B2  0%
3. B3  0%
4. B4  0%
5. {CPT-Aoc}-[dF]RCF[dW]KTF[N(2-mercaptoethyl)Gly]-NH2 (disulfide 3-9) [SEQ ID NO: 27]  0%
6. {Niraparib-Glutaryl}-[dF]RCF[dW]KTF[N(2-mercaptoethyl)Gly]-NH2 (disulfide 3-9) [SEQ ID NO: 28]  0%

In order of rising % displacement at 10 nM:
1. B1  0%
2. B2  0%
3. B3  0%
4. B4  0%
5. {CPT-Aoc}-[dF]RCF[dW]KTF[N(2-mercaptoethyl)Gly]-NH2 (disulfide 3-9) [SEQ ID NO: 27]  0%
6. {Niraparib-Glutaryl}-[dF]RCF[dW]KTF[N(2-mercaptoethyl)Gly]-NH2 (disulfide 3-9) [SEQ ID NO: 28]  0%

These binders were tested against human cloned somatostatin receptor 1 (human) (UniProt P30872) (assay: 125I-Tyr11-SRIF-14 displacement).
Sequence of human cloned somatostatin receptor 1 (human) (P30872 whole entry): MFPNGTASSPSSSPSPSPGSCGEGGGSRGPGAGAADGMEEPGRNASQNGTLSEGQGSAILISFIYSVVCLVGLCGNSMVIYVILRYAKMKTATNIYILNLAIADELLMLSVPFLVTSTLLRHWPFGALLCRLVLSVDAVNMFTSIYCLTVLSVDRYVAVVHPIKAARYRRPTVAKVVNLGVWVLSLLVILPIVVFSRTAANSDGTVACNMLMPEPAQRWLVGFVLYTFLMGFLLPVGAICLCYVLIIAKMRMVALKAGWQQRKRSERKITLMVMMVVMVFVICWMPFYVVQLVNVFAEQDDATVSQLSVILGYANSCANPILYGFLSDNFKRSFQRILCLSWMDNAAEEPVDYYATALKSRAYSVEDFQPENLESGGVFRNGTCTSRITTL

In order of falling % displacement at 1 nM:
1. {Niraparib-Glutaryl}-[dF]RCF[dW]KTF[N(2-mercaptoethyl)Gly]-NH2 (disulfide 3-9) [SEQ ID NO: 28]  12%
2. B1  8%
3. B2  4%
4. B3  1%
5. B4  0%
6. {CPT-Aoc}-[dF]RCF[dW]KTF[N(2-mercaptoethyl)Gly]-NH2 (disulfide 3-9) [SEQ ID NO: 27]  0%

In order of rising % displacement at 10 nM:
1. {CPT-Aoc}-[dF]RCF[dW]KTF[N(2-mercaptoethyl)Gly]-NH2 (disulfide 3-9) [SEQ ID NO: 27]  3%
2. B2  6%
3. B1  7%
4. B3  15%
5. {Niraparib-Glutaryl}-[dF]RCF[dW]KTF[N(2-mercaptoethyl)Gly]-NH2 (disulfide 3-9) [SEQ ID NO: 28]  23%
6. B4  24%
